Results taken from patent US10100120B2, “Antibody which specifically binds to human CRTH2” (KYOWA HAKKO KIRIN CO., LTD, priority 2015, dated 2018).

Columns and labels:
[1] = biological target: T1, mutated human CRTH2 with amino acid substitution (Homo sapiens, UniProt Q9Y5Y4, D177A/G178A/R179A); test: Epitope analysis using CHO-S cells which express mutated human CRTH2 with amino acid substitution; type: binding; conditions: mutant D177A, G178A, and R179A; antibody 10 μg/mL; relative to wild-type = 100%
T1 construct: inserting genes encoding various mutants with amino acid substitution obtained by deleting termination codons; expressed in transfected cells; host or cells: CHO-S cells (Lifetechnologies), transient (phmAG1-MNLinker vector)
T1 sequence (Q9Y5Y4 1-395 D177A/G178A/R179A): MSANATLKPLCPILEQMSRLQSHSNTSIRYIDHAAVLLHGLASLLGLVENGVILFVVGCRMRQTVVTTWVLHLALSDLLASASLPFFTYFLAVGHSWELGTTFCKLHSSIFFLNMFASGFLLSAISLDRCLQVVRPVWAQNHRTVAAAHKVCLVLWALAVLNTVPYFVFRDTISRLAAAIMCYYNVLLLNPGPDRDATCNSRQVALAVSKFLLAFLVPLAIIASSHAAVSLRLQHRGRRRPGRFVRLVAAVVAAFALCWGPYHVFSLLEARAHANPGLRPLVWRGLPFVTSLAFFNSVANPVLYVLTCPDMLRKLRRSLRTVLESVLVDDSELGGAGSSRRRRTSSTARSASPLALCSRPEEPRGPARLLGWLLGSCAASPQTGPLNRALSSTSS
Method: (§1) A mutant with amino acid substitution expression vector obtained by partially substituting amino acid residues in an extracellular region with other amino acid residues among the amino acid sequences of human CRTH2 was prepared. Specifically, mutant with amino acid substitution expression vectors obtained by substitution of S2A; N4A; T6A and L7A; K8A, P9A, and L10A; P12A, L14A, and EISA; Q16E, R19H, and Q21R; H23A, S24A, and N25A; T26A, S27A, and I28A; D171A, T172A, and I173A; S174A, R175A, and L176A; D177A, G178A, and R179A; 1180A and M181A; Y183A, Y184A, and N185A; L187A, L188A, and L189A; N190A; P191A; G192A; P193A; D194A; R195A; D196A, and T198A; N275A, G277A, and L278A; P276A; P279A and L281A; P280A; or V282A, R283A, and R284A in the amino acid sequences represented by SEQ ID NO: 2 were respectively prepared. It should be noted that the above symbols in the amino acid substitution indicate [single letter code of an amino acid residue before substitution] [substitution position counting from the N terminal] [single letter code of the amino acid reside after substitution].
(§2) Azami-Green tag was added to the intercellular C terminal region by inserting genes encoding various mutants with amino acid substitution obtained by deleting termination codons to the restriction enzyme sites of BamHI and HindIII using phmAG1-MNLinker (MBL) as expression vectors.
(§3) The above-described vectors expressing mutants with amino acid substitution were prepared using 1) a method of entirely synthesizing gene sequences encoding mutants with amino acid substitution and inserting the gene sequences into a vector or 2) a method of performing site-specific mutation from a vector into which DNA which encodes the amino acid sequences of wild-type human CRTH2 represented by SEQ ID NO: 1 was inserted.
(§4) CHO-S cells (Lifetechnologies) were used for preparing mutated human CRTH2 with amino acid substitution expressing cell lines. Free style CHO expression medium (Invitrogen) containing 8 mM L-Glutamine (Invitrogen) was used for subculturing cells and the cells were cultured by shaking under the conditions of 37° C. in the presence of 5% CO2.
(§5) 25 μg of the mutated human CRTH2 with amino acid substitution expression vector prepared in (1) described above was dissolved in 400 μL of Opti-Pro SFM (Invitrogen) and 25 μL of a Freestyle MAX Reagent (Invitrogen) was dissolved in 400 μL of Opti-Pro SFM and each of them were allowed to stand at room temperature for 5 minutes. The two liquids were mixed with each other and allowed to stand at room temperature for 15 minutes. The mixed solution was added to the CHO-S culture solution and the cells were cultured for 24 hours, thereby obtaining cell lines which express mutated human CRTH2 with amino acid substitution.
(§6) The CHO-S cells which express mutated human CRTH2 with amino acid substitution established in (2) were washed with SM, seeded in a 96-well plate such that one well has 2×10^5 cells, and centrifuged at 1700 rpm for 2 minutes. After the supernatant was removed, chLym2, LV0HV1, the anti-human CRTH2 antibody hu19A2 v52, hu8B1 v1, ch3C12, or ch31A5 prepared in Example 9, or a commercially available anti-human CRTH2 antibody BM16 (Santa Cruz) prepared to have a concentration of 10 μg/mL using SM was added thereto to cause a reaction at 4° C. for 1 hour.
(§7) After the cells were washed, goat anti-Human IgG Alexa 647 (Molecular Probes) diluted with SM was added to wells to which chLym2, LV0HV1, hu19A2 v52, hu8B1 v1, ch3C12, or ch31A5 was added and goat anti-Rat IgG Alexa 647 (Molecular Probes) diluted with SM was added to wells to which BM16 was added at a final concentration of 10 μg/mL to cause a reaction at 4° C. for 1 hour.
(§8) After the reaction, the cells were washed and suspended with SM, and the fluorescent intensity was analyzed by flow cytometry (BD Biosciences, FACS CantoII). […]

[2] = biological target: T2, mutated human CRTH2 with amino acid substitution (Homo sapiens, UniProt Q9Y5Y4, E15A/L14A/P12A); test: as above; type: binding; conditions: mutant P12A, L14A, and E15A; antibody 10 μg/mL; relative to wild-type = 100%
T2 construct: inserting genes encoding various mutants with amino acid substitution obtained by deleting termination codons; expressed in transfected cells; host or cells: CHO-S cells (Lifetechnologies), transient (phmAG1-MNLinker vector)
T2 sequence (Q9Y5Y4 1-395 P12A/L14A/E15A): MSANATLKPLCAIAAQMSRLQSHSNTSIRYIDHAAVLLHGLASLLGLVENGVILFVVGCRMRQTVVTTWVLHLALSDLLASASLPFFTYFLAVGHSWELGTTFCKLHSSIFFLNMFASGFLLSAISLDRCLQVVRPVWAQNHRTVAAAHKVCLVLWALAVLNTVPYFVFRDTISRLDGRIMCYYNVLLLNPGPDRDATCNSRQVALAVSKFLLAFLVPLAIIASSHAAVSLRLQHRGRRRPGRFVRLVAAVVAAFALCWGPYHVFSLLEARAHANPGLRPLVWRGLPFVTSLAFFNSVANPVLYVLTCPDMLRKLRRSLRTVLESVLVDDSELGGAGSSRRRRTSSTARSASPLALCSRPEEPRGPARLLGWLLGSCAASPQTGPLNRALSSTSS
Method: as §1, §2, §3, §4, §5, §6, §7, §8

B1: LV0HV1: humanized Lym2 antibody, VL LV0 (SEQ ID NO: 33), VH HV1 (SEQ ID NO: 51) (antibody, V domains shown)
VH: EVQLVESGGGVVQPGRSLRLSCAASGFTFSNYYMAWVRQAPGKGLEWVATISYDGSSTYYRDSVKGRFTISRDNAKNSLYLQMNSLRAEDTATYYCARHRGYYYSGAGYFDYWGQGTMVTVSS
VL: DIVMTQTPLSLPVTPGESASISCRSSQSLEYSDGYTYLEWYLQKPGQSPQVLIYGVSNRFSGVPDRFSGSGSGTDFTLKISRVEAEDVGVYYCFQATHDPLTFGQGTKLEIK
[1]
  reactivity against cells expressing mutated human CRTH2: lost
[2]
  reactivity against cells expressing mutated human CRTH2: lost
